Biological target: T1, human C1q (human, UniProt P02745 23-245; P02746 28-253; P02747 29-245)
T1 construct: Bought protein; also called first component of the classical complement cascade
Assay: ELISA, antibody coated, C1q detected with rabbit anti-human C1q
Protocol: In short, microtiter ELISA plates (Greiner, Germany) were coated overnight at RT with the test antibodies serially diluted from 10 μg/ml to 0.06 μg/ml in PBS. Plates were emptied and wells were blocked with 200 μl ELISA-diluent per well (0.1 M NaPO₄, 0.1 M NaCl, 0.1% gelatin and 0.05% Tween-20), at RT for 30 minutes. […] After washing the plates (3×) with PBST, wells were incubated with HRP-conjugated swine anti-rabbit IgG-Fc (DAKO, P0300, lot #069) diluted in ELISA diluent (1:2500, 100 μl/well, RT, 1 hour). Thereafter, plates were washed thrice and assays were developed with freshly prepared 1 mg/ml ABTS solution (ABTS: 2,2′-azino-bis[3-ethylbenzthiazoline-6-sulfonic acid]); 2 tablets of 5 mg in 10 ml ABTS buffer, Boehringer Mannheim, Ingelheim, Germany) at RT in the dark for 30 minutes.

T1 sequence (P02745 23-245 limits assumed, chain 1 of 3): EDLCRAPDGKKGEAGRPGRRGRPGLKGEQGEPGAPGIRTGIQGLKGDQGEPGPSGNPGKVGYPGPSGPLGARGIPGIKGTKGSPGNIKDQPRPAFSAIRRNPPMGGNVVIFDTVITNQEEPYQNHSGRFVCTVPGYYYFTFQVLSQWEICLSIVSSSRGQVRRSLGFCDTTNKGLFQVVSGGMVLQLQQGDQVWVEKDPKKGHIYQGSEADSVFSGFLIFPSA
T1 sequence (P02746 28-253 limits assumed, chain 2 of 3): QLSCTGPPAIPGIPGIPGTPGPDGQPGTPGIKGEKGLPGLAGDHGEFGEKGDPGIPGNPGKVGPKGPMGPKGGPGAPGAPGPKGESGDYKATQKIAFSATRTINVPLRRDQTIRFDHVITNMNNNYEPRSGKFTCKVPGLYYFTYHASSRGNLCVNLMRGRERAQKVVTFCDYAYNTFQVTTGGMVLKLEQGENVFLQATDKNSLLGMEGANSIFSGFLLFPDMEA
T1 sequence (P02747 29-245 limits assumed, chain 3 of 3): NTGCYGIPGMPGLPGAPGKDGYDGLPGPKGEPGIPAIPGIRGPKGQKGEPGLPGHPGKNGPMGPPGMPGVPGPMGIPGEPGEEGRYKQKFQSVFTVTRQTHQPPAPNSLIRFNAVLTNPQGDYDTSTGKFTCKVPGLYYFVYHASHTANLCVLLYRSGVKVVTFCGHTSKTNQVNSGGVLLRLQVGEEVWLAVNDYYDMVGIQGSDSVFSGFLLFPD

binding result: no binding
B1: 7D8-HG (antibody)
heavy: EVQLVESGGGLVQPDRSLRLSCAASGFTFHDYAMHWVRQAPGKGLEWVSTISWNSGTIGYADSVKGRFTISRDNAKNSLYLQMNSLRAEDTALYYCAKDIQYGNYYYGMDVWGQGTTVTVSSASTKGPSVFPLAPCSRSTSESTAALGCLVKDYFPEPVTVSWNSGALTSGVHTFPAVLQSSGLYSLSSVVTVPSSSLGTKTYTCNVDHKPSNTKVDKRVAPEFLGGPSVFLFPPKPKDTLMISRTPEVTCVVVDVSQEDPEVQFNWYVDGVEVHNAKTKPREEQFNSTYRVVSVLTVLHQDWLNGKEYKCKVSNKGLPSSIEKTISKAKGQPREPQVYTLPPSQEEMTKNQVSLTCLVKGFYPSDIAVEWESNGQPENNYKTTPPVLDSDGSFFLYSRLTVDKSRWQEGNVFSCSVMHEALHNHYTQKSLSLSLGK
light: not shown
notes: Half-molecule of one heavy and one light chain; also called hingeless IgG4 anti-CD20; IgG4 HG

Source: patent US20110045007A1 (Genmab, published 2011)
